Measurements published in patent publication US20230036060A1 (University of California, published 2023).

B1: ERT2-CreN-nMag (other)
chain: MAGDMRAANLWPSPLMIKRSKKNSLALSLTADQMVSALLDAEPPILYSEYDPTRPFSEASMMGLLTNLADRELVHMINWAKRVPGFVDLTLHDQVHLLECAWLEILMIGLVWRSMEHPVKLLFAPNLLLDRNQGKCVEGMVEIFDMLLATSSRFRMMNLQGEEFVCLKSIILLNSGVYTFLSSTLKSLEEKDHIHRVLDKITDTLIHLMAKAGLTLQQQHQRLAQLLLILSHIRHMSNKGMEHLYSMKCKNVVPLYDLLLEAADAHRLHAPTSRGGASVEETDQSHLATAGSTSSHSLQKYYITGEAEGFPATAVDNLLTVHQNLPALPVDATSDEVRKNLMDMFRDRQAFSEHTWKMLLSVCRSWAAWCKLNGTHTLYAPGGYDIMGYLDQIGNRPNPQVELGPVDTSCALILCDLKQKDTPIVYASEAFLYMTGYSNAEVLGRNCRFLQSPDGMVKPKSTRKYVDSNTINTMRKAIDRNAEVQVEVVNFKKNGQRFVNFLTMIPVRDETGEYRYSMGFQCETE
B2: myc-α-CD38-Receptor (receptor)
chain: SEQKLISEEDLDIQLTQSSSSFSVSLGDRVTITCKASEDIYNRLAWYQQKPGNAPRLLISGATSLETGVPSRFSGSGSGKDYTLSITSLQTEDVATYYCQQYWSTPTFGGGTKLEIKRADAAPTVSIFPPSGGGGSGGGGSGGGGSGGGGSQVQLKQSGPSLVQPSQRLSITCTVSGFSLISYGVHWVRQSPGKGLEWLGVIWRGGSTDYNAAFMSRLSITKDNSKSQVFFKMNSLQADDTAIYFCAKTLITTGYAMDYWGQGTSVTVSSAAAIEVMYPPPYLDNEKSNGTIIHVKGKHLCPSPLFPGPSKPFWVLVVVGGVLACYSLLVTVAFIIFWVRSKRS
notes: Non-signalling anchoring receptor with myc tag, expressed on Jurkat T cells; also called c-myc-tagged α-CD38 Receptor

Key:
NLS-pMag-CreC = molecular target: T1, NLS-pMag-CreC; assay: cell-based or functional assay
T1 chain: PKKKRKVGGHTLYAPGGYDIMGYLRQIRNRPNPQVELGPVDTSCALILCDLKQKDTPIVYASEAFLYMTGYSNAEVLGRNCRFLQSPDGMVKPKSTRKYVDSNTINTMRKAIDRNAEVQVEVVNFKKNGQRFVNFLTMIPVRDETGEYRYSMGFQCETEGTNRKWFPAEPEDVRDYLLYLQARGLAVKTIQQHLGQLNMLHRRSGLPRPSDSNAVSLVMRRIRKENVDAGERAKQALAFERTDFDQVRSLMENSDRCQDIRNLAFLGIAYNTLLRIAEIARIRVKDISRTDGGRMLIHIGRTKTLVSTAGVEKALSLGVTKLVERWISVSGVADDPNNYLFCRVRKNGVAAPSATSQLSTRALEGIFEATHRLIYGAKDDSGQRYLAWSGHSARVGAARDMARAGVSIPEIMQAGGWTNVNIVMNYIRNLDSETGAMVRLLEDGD

[1] = molecular target: T2, CD38 on CD38+ Toledo Target cells (UniProt P28907 1-300, limits assumed); assay: flow cytometry, Jurkat T cells carrying the receptor with Toledo Target cells
T2 construct: whole, on cells

Binder | fold increase in recombined TamPA-Cre+ CAR Reporter Jurkat T cells, Light+4-OHT against Dark+4-OHT (NLS-pMag-CreC) [fold] | binding result [1]
B1 | 27.1 | –
B2 | – | binds
